# Measurements taken from PMC12042792, “Discovery of two novel cutinases from a gut yeast of plastic-eating mealworm for polyester depolymerization” (Applied and Environmental Microbiology, 2025).
# Tests used:
# Test in all cases: purified protein
# Assay type in all cases: biochemical, Sakaguchia sp.
# purified protein [1] = substrate: CCCC(=O)Oc1ccc([N+](=O)[O-])cc1
# purified protein [2] = substrate: CCCCCCCCCCCC(=O)Oc1ccc([N+](=O)[O-])cc1
# purified protein [3] = substrate: CCCCCCCCCCCCCC(=O)Oc1ccc([N+](=O)[O-])cc1
# purified protein [4] = substrate: CCCCCCCCCCCCCCCC(=O)Oc1ccc([N+](=O)[O-])cc1
# purified protein [5] = substrate: CCCCCCCCCC(=O)Oc1ccc([N+](=O)[O-])cc1
# purified protein [6] = substrate: CCCCCCCC(=O)Oc1ccc([N+](=O)[O-])cc1
# purified protein [7] = substrate: CCCCCC(=O)Oc1ccc([N+](=O)[O-])cc1
# purified protein [8] = substrate: CC(=O)Oc1ccc([N+](=O)[O-])cc1
# [9] = 50 mM Tris-HCl pH 7.5, optimal temperature (45 °C)
# [10] = 50 mM Tris-HCl pH 7.5, optimal temperature (35 °C)
protein,measurement,setting,value
"SiCut2 (Sakaguchia sp.) (protein, no tag mentioned; diafiltered culture supernatant) TAIGERQLGCAPLELFHAAGTSEVGQGIIGRAYQSALPRAVSGATVTPVIYSTIAEYFTTVRAGAQTMQRQLTSRAAACPNTKFVLSGYSKGALVVHEVKLPAAIQSKVVAVTLFGDPKNGQFGSSVVPINNKACFFSFCNRGDVFCDRGISLAAHLAYATDGSVTTAARNIAECFNA",Km,purified protein [1]; [9],2.82 ± 0.58 µM
same,kcat,purified protein [1]; [9],1.13 ± 0.066 s⁻¹
same,kcat/Km,purified protein [1]; [9],401000 ± 5000 M⁻¹ s⁻¹
same,Km,purified protein [2]; [9],2.22 ± 1.9 µM
same,kcat,purified protein [2]; [9],0.983 ± 0.035 s⁻¹
same,kcat/Km,purified protein [2]; [9],443000 ± 4330 M⁻¹ s⁻¹
same,Km,purified protein [3]; [9],4.44 ± 0.5 µM
same,kcat,purified protein [3]; [9],0.832 ± 0.0117 s⁻¹
same,kcat/Km,purified protein [3]; [9],187000 ± 10000 M⁻¹ s⁻¹
same,Km,purified protein [4]; [9],4.01 ± 1.3 µM
same,kcat,purified protein [4]; [9],0.603 ± 0.0417 s⁻¹
same,kcat/Km,purified protein [4]; [9],150000 ± 3830 M⁻¹ s⁻¹
same,Km,purified protein [5]; [9],2.47 ± 0.09 µM
same,kcat,purified protein [5]; [9],1.48 ± 0.0342 s⁻¹
same,kcat/Km,purified protein [5]; [9],600700 ± 667 M⁻¹ s⁻¹
same,Km,purified protein [6]; [9],0.89 ± 0.12 µM
same,kcat,purified protein [6]; [9],2.079 ± 0.0025 s⁻¹
same,kcat/Km,purified protein [6]; [9],2.344e+06 ± 13800 M⁻¹ s⁻¹
same,Km,purified protein [7]; [9],1.44 ± 1.51 µM
same,kcat,purified protein [7]; [9],1.26 ± 0.0175 s⁻¹
same,kcat/Km,purified protein [7]; [9],875000 ± 11700 M⁻¹ s⁻¹
same,Km,purified protein [8]; [9],6.18 ± 0.49 µM
same,kcat,purified protein [8]; [9],0.665 ± 0.07 s⁻¹
same,kcat/Km,purified protein [8]; [9],108000 ± 11300 M⁻¹ s⁻¹
"SiCut1 (Sakaguchia sp.) (protein, no tag mentioned; diafiltered culture supernatant) AAIAERQSSACAPLELYHAAGTSESGLGTVGRAFQTALPREVQGATVSPLNYNTNAEYSSTVTAGAQTFQQLLTSRAAACPNTKFVLSGYSKGALVVHKVTLPSAVQSKVVAITVFGDPQAGQFGATTVPINNKACFFSFCNRGDTFCDRGGNFAAHLAYATDGSVTTASRNIAGCYRA",Km,purified protein [1]; [10],1.73 ± 0.99 µM
same,kcat,purified protein [1]; [10],0.796 ± 0.00367 s⁻¹
same,kcat/Km,purified protein [1]; [10],459800 ± 2330 M⁻¹ s⁻¹
same,Km,purified protein [2]; [10],3.21 ± 0.63 µM
same,kcat,purified protein [2]; [10],0.7233 ± 0.00283 s⁻¹
same,kcat/Km,purified protein [2]; [10],225000 ± 500 M⁻¹ s⁻¹
same,Km,purified protein [3]; [10],3.46 ± 0.02 µM
same,kcat,purified protein [3]; [10],0.213 ± 0.00217 s⁻¹
same,kcat/Km,purified protein [3]; [10],61700 ± 1330 M⁻¹ s⁻¹
same,Km,purified protein [4]; [10],7.09 ± 0.27 µM
same,kcat,purified protein [4]; [10],0.2155 ± 0.002 s⁻¹
same,kcat/Km,purified protein [4]; [10],30300 ± 2170 M⁻¹ s⁻¹
same,Km,purified protein [5]; [10],7.57 ± 0.01 µM
same,kcat,purified protein [5]; [10],0.672 ± 0.026 s⁻¹
same,kcat/Km,purified protein [5]; [10],88800 ± 3170 M⁻¹ s⁻¹
same,Km,purified protein [6]; [10],2.01 ± 0.63 µM
same,kcat,purified protein [6]; [10],1.002 ± 0.00267 s⁻¹
same,kcat/Km,purified protein [6]; [10],501000 ± 1500 M⁻¹ s⁻¹
same,Km,purified protein [7]; [10],0.66 ± 2.77 µM
same,kcat,purified protein [7]; [10],0.8588 ± 0.00717 s⁻¹
same,kcat/Km,purified protein [7]; [10],1.305e+06 ± 1830 M⁻¹ s⁻¹
same,Km,purified protein [8]; [10],9.12 ± 0.04 µM
same,kcat,purified protein [8]; [10],0.3212 ± 0.00267 s⁻¹
same,kcat/Km,purified protein [8]; [10],35200 ± 3000 M⁻¹ s⁻¹
